The results in this text go back to IntAct's records for PubMed 29039417.

To fix the notation:
B1: Protein PTHB1 (Homo sapiens), Q3SYG4 (parent)
chain: MSLFKARDWWSTILGDKEEFDQGCLCLANVDNSGNGQDKIIVGSFMGYLRIFSPHPAKTGDGAQAEDLLLEVDLRDPVLQVEVGKFVSGTEMLHLAVLHSRKLCVYSVSGTLGNVEHGNQCQMKLMYEHNLQRTACNMTYGSFGGVKGRDLICIQSMDGMLMVFEQESYAFGRFLPGFLLPGPLAYSSRTDSFLTVSSCQQVESYKYQVLAFATDADKRQETEQQKLGSGKRLVVDWTLNIGEQALDICIVSFNQSASSVFVLGERNFFCLKDNGQIRFMKKLDWSPSCFLPYCSVSEGTINTLIGNHNNMLHIYQDVTLKWATQLPHIPVAVRVGCLHDLKGVIVTLSDDGHLQCSYLGTDPSLFQAPNVQSRELNYDELDVEMKELQKIIKDVNKSQGVWPMTEREDDLNVSVVVSPNFDSVSQATDVEVGTDLVPSVTVKVTLQNRVILQKAKLSVYVQPPLELTCDQFTFEFMTPDLTRTVSFSVYLKRSYTPSELEGNAVVSYSRPTDRNPDGIPRVIQCKFRLPLKLICLPGQPSKTASHKITIDTNKSPVSLLSLFPGFASQSDDDQVNVMGFHFLGGARITVLASKTSQRYRIQSEQFEDLWLITNELILRLQEYFEKQGVKDFACSFSGSIPLQEYFELIDHHFELRINGEKLEELLSERAVQFRAIQRRLLARFKDKTPAPLQHLDTLLDGTYKQVIALADAVEENQGNLFQSFTRLKSATHLVILLIALWQKLSADQVAILEAAFLPLQEDTQELGWEETVDAAISHLLKTCLSKSSKEQALNLNSQLNIPKDTSQLKKHITLLCDRLSKGGRLCLSTDAAAPQTMVMPGGCTTIPESDLEERSVEQDSTELFTNHRHLTAETPRPEVSPLQGVSE
partner: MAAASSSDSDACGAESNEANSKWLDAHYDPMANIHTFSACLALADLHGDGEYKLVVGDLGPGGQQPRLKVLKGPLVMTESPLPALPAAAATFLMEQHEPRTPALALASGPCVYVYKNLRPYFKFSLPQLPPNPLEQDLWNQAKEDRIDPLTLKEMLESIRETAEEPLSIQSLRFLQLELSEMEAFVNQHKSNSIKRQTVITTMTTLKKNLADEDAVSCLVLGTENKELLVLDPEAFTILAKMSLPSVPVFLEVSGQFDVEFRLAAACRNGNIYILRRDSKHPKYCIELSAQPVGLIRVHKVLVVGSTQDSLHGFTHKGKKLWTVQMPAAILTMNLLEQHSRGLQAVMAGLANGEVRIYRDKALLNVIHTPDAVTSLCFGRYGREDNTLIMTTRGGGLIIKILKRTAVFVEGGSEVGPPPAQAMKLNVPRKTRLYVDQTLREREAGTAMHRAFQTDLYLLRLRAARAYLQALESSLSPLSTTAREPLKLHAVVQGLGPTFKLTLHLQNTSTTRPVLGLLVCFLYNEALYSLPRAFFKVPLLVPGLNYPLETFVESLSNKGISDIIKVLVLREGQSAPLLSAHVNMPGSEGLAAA

This test covers variants of B1. The conditions noted are these: with bbs1_human BBS1, Q8NFJ9.
Turning to G518E, the “effect of a mutation on the interaction” value was “with no effect”. The value for G518K was “with no effect”; that for G518A was “with no effect”; that for I550A was “with no effect”. In the case of I550E it was “with no effect”; in that of I550K, “with no effect”; in that of V522K, “with no effect”. The value for V522A was “with no effect”; that for V522E was “with no effect”. Regarding T552A, the “effect of a mutation on the interaction” value was “with no effect”. The value for T552E was “with no effect”. As for T552K, the “effect of a mutation on the interaction” value is on record as “with no effect”. In the case of Y508A, the “effect of a mutation on the interaction” value was “with no effect”.

Y508E: the “effect of a mutation on the interaction” value is on record as “with no effect”.

For the variant Y508K, the “effect of a mutation on the interaction” value was “with no effect”. The value for R510A was “with no effect”; that for R510E was “with no effect”. The value for R510K was “with no effect”; that for C535A was “with no effect”; that for C535K was “with no effect”. In the case of C535E it was “with no effect”. Regarding L560K, the “effect of a mutation on the interaction” value was “with no effect”. In the case of L560A it was “with no effect”; in that of L560E, “with no effect”; in that of T512K, “with no effect”. With T512E, the “effect of a mutation on the interaction” value is “with no effect”. T512A: the “effect of a mutation on the interaction” value is “with no effect”. The value for N515K was “with no effect”; that for N515E was “with no effect”; that for N515A was “with no effect”. For the variant P556K, the “effect of a mutation on the interaction” value was “with no effect”. On to P556A, for which the “effect of a mutation on the interaction” value was “with no effect”. The value for P556E was “with no effect”; that for R514A was “with no effect”; that for R514E was “with no effect”. The value for R514K was “with no effect”. In the case of G502A it was “with no effect”. Regarding G502E, the “effect of a mutation on the interaction” value was “with no effect”.

For the variant G502R, the “effect of a mutation on the interaction” value was “disrupting interaction strength”. For G502K, the “effect of a mutation on the interaction” value is given as “with no effect”. The value for S555E was “with no effect”; that for S555A was “with no effect”; that for S555K was “with no effect”.

Consider Q524K, for which the “effect of a mutation on the interaction” value was “with no effect”. The value for Q524E was “with no effect”; that for Q524A was “with no effect”. In the case of K547A it was “with no effect”; in that of K547E, “with no effect”. The value for E501K was “with no effect”; that for P540E was “with no effect”.

With P540K, the “effect of a mutation on the interaction” value is “with no effect”.

In the case of P540A, the “effect of a mutation on the interaction” value is recorded as “with no effect”. The value for P516A was “with no effect”; that for P516E was “with no effect”. In the case of P516K it was “with no effect”; in that of L562K, “with no effect”; in that of L562A, “with no effect”. The value for L562E was “with no effect”; that for L562F was “disrupting interaction strength”. For the variant L536E, the “effect of a mutation on the interaction” value is recorded as “with no effect”.

Consider L536A, for which the “effect of a mutation on the interaction” value is on record as “with no effect”. In the case of L536K it was “with no effect”.

In the case of D517A, the “effect of a mutation on the interaction” value is “with no effect”.

For the variant D517K, the “effect of a mutation on the interaction” value is recorded as “with no effect”.

In the case of D517E, the “effect of a mutation on the interaction” value is recorded as “with no effect”. The value for R521E was “with no effect”; that for R521A was “with no effect”; that for R521K was “with no effect”. The value for R521T was “disrupting interaction strength”.

As to N553A, the “effect of a mutation on the interaction” value is listed as “with no effect”. For the variant N553K, the “effect of a mutation on the interaction” value is “with no effect”. In the case of N553E it was “with no effect”.

Turning to I534E, the “effect of a mutation on the interaction” value was “with no effect”. With I534K, the “effect of a mutation on the interaction” value was “with no effect”. The value for I534A was “with no effect”; that for S558K was “with no effect”; that for S558E was “with no effect”. In the case of S558A, the “effect of a mutation on the interaction” value is recorded as “with no effect”.

Consider V505A, for which the “effect of a mutation on the interaction” value is given as “with no effect”. In the case of V505K, the “effect of a mutation on the interaction” value is “with no effect”. In the case of V505E, the “effect of a mutation on the interaction” value was “with no effect”.

Take H546A: the “effect of a mutation on the interaction” value was “with no effect”. In the case of H546K it was “with no effect”; in that of H546E, “with no effect”. In the case of I548K it was “with no effect”; in that of I548A, “with no effect”; in that of I548E, “with no effect”.

Regarding I519E, the “effect of a mutation on the interaction” value is “with no effect”.

Regarding I519A, the “effect of a mutation on the interaction” value was “with no effect”. In the case of I519K it was “with no effect”.

With L529A, the “effect of a mutation on the interaction” value is reported as “with no effect”. The value for L529K was “with no effect”.
